Numbering of substitutions follows the chain as printed. Numbers in names are those of the source.

For assay [1], the target named is RUVBL1/2 WT complex ( (human or mouse cDNA cloned), UniProt Q9Y265 1-456; Q9Y230 1-463). Kind of assay: SPR.
Assay [2] concerns the target T1, 3xFLAG-FL-NOPCHAP1 (human, UniProt Q8N5I9 1-185).
T1 sequence (looked up): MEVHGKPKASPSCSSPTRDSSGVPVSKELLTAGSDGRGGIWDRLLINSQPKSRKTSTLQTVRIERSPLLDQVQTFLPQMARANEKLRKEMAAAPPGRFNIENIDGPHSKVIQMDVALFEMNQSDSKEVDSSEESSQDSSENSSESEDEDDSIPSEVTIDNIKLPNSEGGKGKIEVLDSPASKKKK
Kind of assay: co-IP.

Assay [3] addresses 3xFLAG-FL-RUVBL1 (WT) (mouse, UniProt P60122 1-456). Kind of assay: co-IP.
Assay [4] has as its target 3xFLAG-FL-RUVBL2 (WT) (mouse, UniProt Q9WTM5 1-463). Kind of assay: co-IP.

Chain of 3xFLAG-FL-RUVBL1 (WT) (P60122 whole entry): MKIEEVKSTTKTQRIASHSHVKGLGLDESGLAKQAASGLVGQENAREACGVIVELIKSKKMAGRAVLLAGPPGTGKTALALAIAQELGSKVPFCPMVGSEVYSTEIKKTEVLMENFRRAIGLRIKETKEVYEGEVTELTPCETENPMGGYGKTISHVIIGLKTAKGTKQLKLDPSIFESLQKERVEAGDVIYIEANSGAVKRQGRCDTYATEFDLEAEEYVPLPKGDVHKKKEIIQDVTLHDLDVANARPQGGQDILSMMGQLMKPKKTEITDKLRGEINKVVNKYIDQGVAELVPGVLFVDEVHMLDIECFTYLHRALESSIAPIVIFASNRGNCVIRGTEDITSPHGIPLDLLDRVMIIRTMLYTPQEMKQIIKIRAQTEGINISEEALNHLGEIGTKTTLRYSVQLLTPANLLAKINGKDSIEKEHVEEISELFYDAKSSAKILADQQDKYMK
Chain of RUVBL1/2 WT complex (Q9Y265 whole entry, one chain of several): as the sequence (P60122 whole entry) above, with V291I counted along it

B1: Avi-NOPCHAP1-6xHis, biotinylated (natural protein, human, UniProt Q8N5I9 1-185, looked up)
chain: T1 sequence (looked up)
modifications: biotin (cellular biotinylation by BirA)
The molecule B1 had a Kd in assay [1] of 1.98 nM.

B2: RL-NOP58 (natural protein, human, UniProt Q9Y2X3 1-529, looked up)
chain: MLVLFETSVGYAIFKVLNEKKLQEVDSLWKEFETPEKANKIVKLKHFEKFQDTAEALAAFTALMEGKINKQLKKVLKKIVKEAHEPLAVADAKLGGVIKEKLNLSCIHSPVVNELMRGIRSQMDGLIPGVEPREMAAMCLGLAHSLSRYRLKFSADKVDTMIVQAISLLDDLDKELNNYIMRCREWYGWHFPELGKIISDNLTYCKCLQKVGDRKNYASAKLSELLPEEVEAEVKAAAEISMGTEVSEEDICNILHLCTQVIEISEYRTQLYEYLQNRMMAIAPNVTVMVGELVGARLIAHAGSLLNLAKHAASTVQILGAEKALFRALKSRRDTPKYGLIYHASLVGQTSPKHKGKISRMLAAKTVLAIRYDAFGEDSSSAMGVENRAKLEARLRTLEDRGIRKISGTGKALAKTEKYEHKSEVKTYDPSGDSTLPTCSKKRKIEQVDKEDEITEKKAKKAKIKVKVEEEEEEKVAEEEETSVKKKKKRGKKKHIKEEPLSEEEPCTSTAIASPEKKKKKKKKRENED
In the case of B2, the co-IP efficiency in assay [2] was 0.18%; in assay [3] it was less than 0.1%; in assay [4], less than 0.1%. Further, the “fold over the control IP without antibody” value in assay [2] came to 64 fold.

B3: RL-RUVBL2-E300Q (natural protein, mouse, UniProt Q9WTM5 1-463, looked up)
chain: MATVAATTKVPEIRDVTRIERIGAHSHIRGLGLDDALEPRQASQGMVGQLAARRAAGVVLEMIREGKIAGRAVLIAGQPGTGKTAIAMGMAQALGPDTPFTAIAGSEIFSLEMSKTEALTQAFRRSIGVRIKEETEIIEGEVVEIQIDRPATGTGSKVGKLTLKTTEMETIYDLGTKMIESLTKDKVQAGDVITIDKATGKISKLGRSFTRARDYDAMGSQTKFVQCPDGELQKRKEVVHTVSLHEIDVINSRTQGFLALFSGDTGEIKSEVREQINAKVAEWREEGKAEIIPGVLFIDQVHMLDIESFSFLNRALESDMAPVLIMATNRGITRIRGTSYQSPHGIPIDLLDRLLIVSTSPYSEKDTKQILRIRCEEEDVEMSEDAYTVLTRIGLETSLRYAIQLITAASLVCRKRKGTEVQVDDIKRVYSLFLDESRSTQYMKEYQDAFLFNELKGETMDTS
As for B3, the co-IP efficiency in assay [2] was found to be 0.35%.

B4: RL-RUVBL2-K83M (natural protein, mouse, UniProt Q9WTM5 1-463, looked up)
chain: B3 chain with K83M, Q300E
In assay [2], B4 yielded a co-IP efficiency of 7.5%.

The Kd is a measure of binding affinity in units of concentration. A low value points to a tighter complex.

These data come from publication PMC7826282 (Nucleic Acids Research, 2020).
